From patent US9725517B2, “Humanized monoclonal antibodies against the extracellular domain of human death receptor 5” (Institute of Basic Medical Sciences, Chinese Academy of …, priority 2012, dated 2017)

System: Jurkat, HCT116, BEL-7402 and H460 cancer cells
Assay: CCK-8 cytotoxicity assay of killing cancer cells
Assay type: cell-based, human
Details: summary statement; leukemia, liver cancer, colon cancer, lung cancer cells
Description: The assay was carried out in 96-well cell culture plates. Various concentrations (0, 0.5, 1, 2, 4, 8 μg/ml) of humanized anti-human DR5 monoclonal antibodies AD10, AD14 and AD15 were separately added into to human T-cell lymphocytic leukemia cells Jurkat (ATCC, TIB-152), colon cancer cells HCT116 (ATCC, CCL-247), liver cancer cells BEL-7402 (cell bank, Shanghai Institutes for Biological Sciences of Chinese Academy of Sciences, TCHu 10) and non-small cell lung cancer cells H460 (ATCC, HTB-177) in logarithmic growth phase, for 24 hours; parental murine anti-human DR5 monoclonal antibody (AD5-10) and human-mouse chimeric antibody zaptuximab were used as controls. According to the protocol of CCK-8 cytotoxicity detection kit (Dojindo, Gaithersburg, Md.), CCK-8 agents were added and incubated for 2 to 4 hours, the OD value was measured at 450 nm wavelength in micro-ELISA plate detector. The OD value in cell-free well was set as blank control “0”. Cell survival rate=OD value in treated well/OD value in untreated well.

B1: zaptuzumab: intact humanized monoclonal antibody against DR5 expressed in HEK293 cells and purified by affinity chromatography (antibody, chains of the INN, looked up, V domains shown)
VH: QVQLVQSGSELKKPGASVKVSCKASGYTFTDFSMNWVRQAPGQGLEWMGWINTETGEPTYADDFKGRFVFSLDTSVSTAYLQISSLKAEDTAVYYCARIDYWGQGTTVTVSS
VL: DIVMTQSPLSLPVTPGEPASISCRSSQSLVHSNGNTYLHWYLQKPGQSPQLLIYKVSNRFSGVPDRFSGSGSGTDFTLKISRVEAEDVGVYYCFQSTHVPHTFGQGTKLEIK
- killing activity to cancer cells in vitro: strong killing activity to various cancer cells
